The assay deals with H5VN04 trimeric HA (recombinant hemagglutinin) (Influenza A virus A/Vietnam/1203/2004 …, strain). Put plainly: SPR. The following applies: both partners purified.

B1: CR6261 scFv (wild type) (scFv, V domains shown)
VH: EVQLVESGAEVKKPGSSVKVSCKASGGPFRSYAISWVRQAPGQGPEWMGGIIPIFGTTKYAPKFQGRVTITADDFAGTVYMELSSLRSEDTAMYYCAKHMGYQVRETMDVWGKGTTVTVSS
VL: QSVLTQPPSVSAAPGQKVTISCSGSSSNIGNDYVSWYQQLPGTAPKLLIYDNNKRPSGIPDRFSGSKSGTSATLGITGLQTGDEANYYCATWDRRPTAYVVFGGGTKLTVL
As for B1, the binding result is listed as “binds”.

The values are drawn from PMC4006906 (PLoS Pathogens, 2014).
